Experimental data taken from the supplement of paper PMC10065799, “High-throughput profiling of sequence recognition by tyrosine kinases and SH2 domains using bacterial peptide display” (eLife, 2023).

Legend:
SHP2-C SH2 = assay: SH2 binding enrichment of the phosphorylated peptide, bacterial display (enrichment ratio); higher = better substrate or ligand; peptides without Tyr show the background
Grb2 SH2 = Grb2 SH2 (UniProt P62993); assay: as above
c-Src SH2 = assay: as above
MERTK = MERTK (UniProt Q12866); assay: phosphorylation enrichment, bacterial display (enrichment ratio); higher = better substrate or ligand; peptides without Tyr show the background
Fer (mouse) = assay: as above
Jak2 = Jak2 (UniProt O60674); assay: as above
FGFR1 = FGFR1 (UniProt P11362); assay: as above
EPHB1 = EPHB1 (UniProt P54762); assay: as above
FGFR3 = FGFR3 (UniProt P22607); assay: as above
c-Abl (mouse) = assay: as above
EPHB2 = EPHB2 (UniProt P29323); assay: as above
AncSZ = assay: as above
Fes = Fes (UniProt P07332); assay: as above
Fyn = Fyn (UniProt P06241); assay: as above
Hck = Hck (UniProt P08631); assay: as above
c-Src = assay: as above
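Wherever SH2 binding enrichment of the phosphorylated peptide, bacterial display is given: peptide library displayed on the E. coli surface as eCPX fusions, selected cells deep-sequenced, score is each peptide's frequency after selection divided by its frequency in the input.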
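Wherever phosphorylation enrichment, bacterial display is given: 11-residue human phosphosite peptides and single-mutation variants displayed on the E. coli surface, counted by deep sequencing, each peptide's frequency after selection divided by its frequency in the unselected input library; frequency after pTyr selection over input frequency; kinase dosed for 20-30% of maximal phosphorylation in three min.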

MERTK, sequence (Q12866 whole entry, looked up): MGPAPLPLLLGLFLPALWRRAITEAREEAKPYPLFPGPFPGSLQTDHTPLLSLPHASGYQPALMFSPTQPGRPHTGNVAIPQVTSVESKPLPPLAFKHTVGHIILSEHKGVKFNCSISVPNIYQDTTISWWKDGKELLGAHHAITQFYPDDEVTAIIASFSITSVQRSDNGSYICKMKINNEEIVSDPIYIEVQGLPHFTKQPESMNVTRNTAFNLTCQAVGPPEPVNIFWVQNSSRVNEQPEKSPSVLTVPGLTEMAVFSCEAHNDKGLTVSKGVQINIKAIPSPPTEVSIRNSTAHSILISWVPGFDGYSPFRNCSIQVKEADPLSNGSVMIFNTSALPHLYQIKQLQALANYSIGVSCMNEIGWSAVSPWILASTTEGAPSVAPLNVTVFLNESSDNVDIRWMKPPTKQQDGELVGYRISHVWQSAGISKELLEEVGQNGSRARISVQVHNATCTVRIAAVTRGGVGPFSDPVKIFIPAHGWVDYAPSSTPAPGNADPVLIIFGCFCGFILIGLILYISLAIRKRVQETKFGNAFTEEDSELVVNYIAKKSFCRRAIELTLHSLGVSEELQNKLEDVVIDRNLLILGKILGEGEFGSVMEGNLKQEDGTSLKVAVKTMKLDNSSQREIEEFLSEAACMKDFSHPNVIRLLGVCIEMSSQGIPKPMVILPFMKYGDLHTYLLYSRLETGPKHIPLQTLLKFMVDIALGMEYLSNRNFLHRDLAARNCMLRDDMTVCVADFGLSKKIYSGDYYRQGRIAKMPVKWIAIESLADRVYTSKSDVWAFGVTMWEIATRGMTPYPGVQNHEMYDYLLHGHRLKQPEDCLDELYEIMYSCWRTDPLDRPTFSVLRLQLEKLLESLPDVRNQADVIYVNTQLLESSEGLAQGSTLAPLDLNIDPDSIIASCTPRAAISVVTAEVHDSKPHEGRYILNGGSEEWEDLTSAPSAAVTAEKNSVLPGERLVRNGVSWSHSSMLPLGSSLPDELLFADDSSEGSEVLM
EPHB2, sequence (P29323 whole entry, looked up): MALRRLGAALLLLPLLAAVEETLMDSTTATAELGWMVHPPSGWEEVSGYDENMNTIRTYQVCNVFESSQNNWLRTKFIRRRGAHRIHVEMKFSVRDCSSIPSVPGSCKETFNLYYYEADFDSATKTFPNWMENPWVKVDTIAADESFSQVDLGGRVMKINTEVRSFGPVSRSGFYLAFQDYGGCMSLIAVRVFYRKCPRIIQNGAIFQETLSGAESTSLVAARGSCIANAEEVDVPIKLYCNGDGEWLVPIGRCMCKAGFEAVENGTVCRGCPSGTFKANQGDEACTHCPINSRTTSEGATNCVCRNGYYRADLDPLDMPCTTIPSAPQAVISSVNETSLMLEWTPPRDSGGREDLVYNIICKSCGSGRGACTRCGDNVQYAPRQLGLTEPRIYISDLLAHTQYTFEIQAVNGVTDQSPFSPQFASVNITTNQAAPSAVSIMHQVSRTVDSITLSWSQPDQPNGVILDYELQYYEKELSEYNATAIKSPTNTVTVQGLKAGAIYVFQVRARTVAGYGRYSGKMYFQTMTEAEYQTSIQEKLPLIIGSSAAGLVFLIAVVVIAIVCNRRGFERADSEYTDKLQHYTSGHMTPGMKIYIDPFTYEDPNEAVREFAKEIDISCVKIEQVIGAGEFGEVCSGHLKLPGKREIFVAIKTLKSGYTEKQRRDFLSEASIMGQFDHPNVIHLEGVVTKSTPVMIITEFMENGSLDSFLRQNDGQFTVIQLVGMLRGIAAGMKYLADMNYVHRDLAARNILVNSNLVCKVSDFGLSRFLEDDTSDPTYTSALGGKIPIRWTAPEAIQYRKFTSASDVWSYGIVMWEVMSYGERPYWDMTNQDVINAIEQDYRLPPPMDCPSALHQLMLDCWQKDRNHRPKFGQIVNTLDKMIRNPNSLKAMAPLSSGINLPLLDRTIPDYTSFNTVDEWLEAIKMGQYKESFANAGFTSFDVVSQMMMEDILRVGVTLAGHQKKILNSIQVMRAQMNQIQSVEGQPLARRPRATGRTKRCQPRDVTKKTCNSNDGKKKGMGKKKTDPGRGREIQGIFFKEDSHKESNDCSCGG
Fes, sequence (P07332 whole entry, looked up): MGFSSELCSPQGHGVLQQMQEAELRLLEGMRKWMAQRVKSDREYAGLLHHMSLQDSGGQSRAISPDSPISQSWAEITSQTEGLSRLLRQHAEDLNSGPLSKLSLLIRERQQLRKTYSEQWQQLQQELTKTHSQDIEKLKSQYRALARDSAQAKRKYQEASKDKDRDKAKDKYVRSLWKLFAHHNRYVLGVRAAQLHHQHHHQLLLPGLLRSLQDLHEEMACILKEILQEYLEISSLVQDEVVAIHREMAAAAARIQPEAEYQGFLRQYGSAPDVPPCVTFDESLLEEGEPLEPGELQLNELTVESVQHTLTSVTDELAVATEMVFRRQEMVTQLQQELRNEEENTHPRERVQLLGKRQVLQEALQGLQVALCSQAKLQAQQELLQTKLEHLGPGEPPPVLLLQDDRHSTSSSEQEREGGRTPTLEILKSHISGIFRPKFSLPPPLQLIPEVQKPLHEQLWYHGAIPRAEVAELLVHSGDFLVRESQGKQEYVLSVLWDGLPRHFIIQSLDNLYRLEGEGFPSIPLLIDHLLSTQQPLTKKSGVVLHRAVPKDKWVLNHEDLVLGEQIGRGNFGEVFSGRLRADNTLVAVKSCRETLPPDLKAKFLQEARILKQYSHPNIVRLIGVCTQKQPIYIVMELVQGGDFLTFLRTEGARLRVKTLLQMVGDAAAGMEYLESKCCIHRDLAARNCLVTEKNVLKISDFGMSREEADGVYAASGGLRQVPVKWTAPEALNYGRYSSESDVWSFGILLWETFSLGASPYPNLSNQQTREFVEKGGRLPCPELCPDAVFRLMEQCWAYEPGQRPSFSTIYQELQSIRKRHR
Jak2, sequence (O60674 whole entry, looked up): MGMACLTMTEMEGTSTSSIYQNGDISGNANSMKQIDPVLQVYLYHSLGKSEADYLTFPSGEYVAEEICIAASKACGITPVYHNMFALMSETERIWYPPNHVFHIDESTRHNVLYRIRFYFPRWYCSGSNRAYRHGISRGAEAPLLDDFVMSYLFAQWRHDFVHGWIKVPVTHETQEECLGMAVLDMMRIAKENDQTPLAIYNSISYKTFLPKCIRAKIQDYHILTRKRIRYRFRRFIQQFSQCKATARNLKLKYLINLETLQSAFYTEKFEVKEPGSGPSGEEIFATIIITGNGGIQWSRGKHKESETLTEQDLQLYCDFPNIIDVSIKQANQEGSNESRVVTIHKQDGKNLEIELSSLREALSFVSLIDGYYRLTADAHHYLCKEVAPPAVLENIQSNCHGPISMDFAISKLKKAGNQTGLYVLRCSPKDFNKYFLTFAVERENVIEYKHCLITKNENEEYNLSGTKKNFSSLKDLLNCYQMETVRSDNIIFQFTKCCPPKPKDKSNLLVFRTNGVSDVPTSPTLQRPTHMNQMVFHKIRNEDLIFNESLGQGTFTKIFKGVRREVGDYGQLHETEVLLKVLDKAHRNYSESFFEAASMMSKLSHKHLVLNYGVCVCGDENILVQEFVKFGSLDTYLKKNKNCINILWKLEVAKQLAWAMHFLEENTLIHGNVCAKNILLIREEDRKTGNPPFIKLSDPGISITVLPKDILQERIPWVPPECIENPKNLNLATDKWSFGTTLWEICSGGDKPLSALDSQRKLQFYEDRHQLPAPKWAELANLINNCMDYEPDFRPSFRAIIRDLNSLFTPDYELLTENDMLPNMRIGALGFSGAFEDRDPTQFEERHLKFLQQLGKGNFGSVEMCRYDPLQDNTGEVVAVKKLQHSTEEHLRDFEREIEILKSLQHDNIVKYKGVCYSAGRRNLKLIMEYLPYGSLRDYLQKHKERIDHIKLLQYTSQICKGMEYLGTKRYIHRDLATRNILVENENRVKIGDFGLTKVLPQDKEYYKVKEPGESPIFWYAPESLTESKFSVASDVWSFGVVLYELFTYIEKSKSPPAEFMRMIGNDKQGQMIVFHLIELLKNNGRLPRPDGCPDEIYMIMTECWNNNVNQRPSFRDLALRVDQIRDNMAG
EPHB1, sequence (P54762 whole entry, looked up): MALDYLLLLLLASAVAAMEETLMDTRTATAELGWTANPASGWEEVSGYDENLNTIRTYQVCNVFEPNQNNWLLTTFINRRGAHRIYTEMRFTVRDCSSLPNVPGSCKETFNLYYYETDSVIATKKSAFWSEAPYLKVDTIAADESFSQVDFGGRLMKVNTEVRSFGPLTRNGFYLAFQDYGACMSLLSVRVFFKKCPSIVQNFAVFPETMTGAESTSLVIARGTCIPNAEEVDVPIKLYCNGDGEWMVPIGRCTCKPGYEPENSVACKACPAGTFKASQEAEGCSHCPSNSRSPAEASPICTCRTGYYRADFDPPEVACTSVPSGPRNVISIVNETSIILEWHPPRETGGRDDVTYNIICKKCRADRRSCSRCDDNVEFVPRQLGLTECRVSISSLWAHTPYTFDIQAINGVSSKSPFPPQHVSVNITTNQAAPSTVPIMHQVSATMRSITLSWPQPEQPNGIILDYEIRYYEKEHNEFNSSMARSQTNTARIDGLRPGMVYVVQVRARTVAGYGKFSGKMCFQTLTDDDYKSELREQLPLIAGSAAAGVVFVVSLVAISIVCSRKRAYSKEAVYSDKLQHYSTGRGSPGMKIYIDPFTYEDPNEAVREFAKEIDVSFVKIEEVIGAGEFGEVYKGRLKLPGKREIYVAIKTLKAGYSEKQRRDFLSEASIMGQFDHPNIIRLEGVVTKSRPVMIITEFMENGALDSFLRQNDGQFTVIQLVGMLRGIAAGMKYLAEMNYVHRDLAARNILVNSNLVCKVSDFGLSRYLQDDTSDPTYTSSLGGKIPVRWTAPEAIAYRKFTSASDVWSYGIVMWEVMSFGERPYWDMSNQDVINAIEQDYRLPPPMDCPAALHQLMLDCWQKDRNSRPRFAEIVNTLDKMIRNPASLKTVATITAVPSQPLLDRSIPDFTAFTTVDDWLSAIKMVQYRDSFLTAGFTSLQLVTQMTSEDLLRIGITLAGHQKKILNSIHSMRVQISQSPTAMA

SH2 binding enrichment (SHP2-C SH2)	SH2 binding enrichment (Grb2 SH2)	SH2 binding enrichment (c-Src SH2)	Sequence	phosphorylation enrichment (MERTK)	phosphorylation enrichment (Fer (mouse))	phosphorylation enrichment (Jak2)	phosphorylation enrichment (FGFR1)	phosphorylation enrichment (EPHB1)	phosphorylation enrichment (FGFR3)	phosphorylation enrichment (c-Abl (mouse))	phosphorylation enrichment (EPHB2)	phosphorylation enrichment (AncSZ)	phosphorylation enrichment (Fes)	phosphorylation enrichment (Fyn)	phosphorylation enrichment (Hck)	phosphorylation enrichment (c-Src)
0.857	0.819	0.478	MAALSYVSEIG [BPIFB2_Y36_K31M]	0.371	0.394	0.804	0.447	0.397	0.584	0.615	0.521	0.642	0.733	0.432	0.4	0.431
0.919	0.953	0.636	DRLTVYIDRVR [LMNA_Y45_A43T]	0.312	0.433	1.15	0.426	0.553	0.779	0.749	0.614	1.34	1.26	0.409	0.458	0.324
0.727	0.876	0.61	EYKDAYTFAAD [BRDT_Y335_K336T]	0.51	0.555	1.11	0.511	0.553	0.74	0.556	0.595	1.15	1.09	0.833	0.548	1.29
0.813	0.731	0.466	GIVEDYRPPFY [ACVRL1_Y421]	0.406	0.457	0.831	0.445	0.522	0.633	0.735	0.502	0.981	0.942	0.49	0.427	0.434
0.791	1.04	0.802	ENFDDYMKEVG [FABP4_Y20]	0.396	0.687	1.06	0.569	0.579	0.699	0.707	0.623	1.23	1.22	0.496	0.527	0.539
0.804	0.989	2.84	EICTQYEAMAS [GFAP_Y242_R239C]	0.55	0.829	0.777	0.517	0.65	0.683	0.71	0.614	1.23	1.15	0.576	0.708	0.601
1.07	1.29	1.13	SVCPDYDLCSV [SQSTM1_Y148]	0.524	1.89	1.3	0.661	0.788	0.901	0.98	0.959	1.65	1.3	0.689	0.678	0.87
1.15	0.991	0.641	IPGMEYLVSII [TNC_Y1775_V1773M]	0.565	0.722	1.11	0.72	0.65	0.889	0.825	0.855	1.44	1.41	0.612	0.522	0.583
0.73	0.693	0.504	LYDPDYMKVIL [CYP4A22_Y104]	1.51	1.48	2.27	1.54	2.9	1.07	1.36	2.61	1.96	1.54	0.72	0.787	0.988
0.927	0.95	0.882	VNTTLYEKFTF [TEK_Y1108_YF]	4.71	8.38	0.891	0.456	1.1	0.677	0.976	0.748	0.886	0.989	2.48	4.13	2.89
0.389	0.742	0.444	SVTCTHSPALN [TP53_Y126_Y126H]	0.4	0.542	0.759	0.404	0.498	0.612	0.818	0.548	0.862	1.01	0.52	0.529	0.459
0.51	0.59	0.35	DLFRLYVCVKE [ARID1B_Y1091]	0.364	0.548	1.35	0.389	0.697	0.88	0.875	0.67	1.17	1.52	0.396	0.475	0.431
11.8	0.994	2.06	SGIYQYSIAKF [FOXL2_Y83_I84S]	9.44	13.4	1.04	1.71	4.84	1.46	7.69	2.75	1.83	1.18	4.54	5.59	4.12
0.512	0.756	0.437	PTQLPYDHKWK [KIT_Y578_E583K]	0.28	0.478	0.626	0.58	0.484	0.439	0.634	0.299	0.725	0.677	0.433	0.397	0.425
1	0.895	0.681	TTPGPHRSIFF [MPG_Y71_Y71H_YF]	0.376	0.328	0.449	0.353	0.41	0.41	0.542	0.386	0.502	0.514	0.398	0.355	0.303
0.708	0.86	0.594	KFRREYILSLE [GPC3_Y299_W296R_YF]	0.455	0.442	0.61	0.518	0.551	0.466	0.601	0.586	0.786	0.772	0.518	0.474	0.5
0.518	0.932	5.11	AIFEGYALPHA [ACTC1_Y171_P166A_YF]	0.726	0.605	0.539	0.549	0.452	0.535	1.2	0.401	0.732	0.801	0.472	0.43	0.414

SH2 binding enrichment (SHP2-C SH2)	SH2 binding enrichment (Grb2 SH2)	SH2 binding enrichment (c-Src SH2)	Sequence	phosphorylation enrichment (MERTK)	phosphorylation enrichment (Fer (mouse))	phosphorylation enrichment (Jak2)	phosphorylation enrichment (FGFR1)	phosphorylation enrichment (EPHB1)	phosphorylation enrichment (FGFR3)	phosphorylation enrichment (c-Abl (mouse))	phosphorylation enrichment (EPHB2)	phosphorylation enrichment (AncSZ)	phosphorylation enrichment (Fes)	phosphorylation enrichment (Fyn)	phosphorylation enrichment (Hck)	phosphorylation enrichment (c-Src)
0.595	0.938	1.79	AAGGRYYGLVG [HARS1_Y363_D364Y]	3.95	0.45	0.49	0.432	0.347	0.451	0.671	0.441	0.56	0.601	0.618	0.715	0.867
0.563	0.769	1.02	SRGSSYSSIPK [FLNC_Y2625]	0.489	0.37	0.498	0.479	0.304	0.362	0.428	0.322	0.474	0.518	0.358	0.381	0.444
0.714	0.857	0.535	HFGCVYFGTLL [MET_Y1093_H1094Y_YF]	0.528	0.458	1.18	1.01	0.917	1.51	0.695	0.699	1.77	1.23	0.899	0.763	3.7
0.636	0.65	0.411	ETKKQYNSFTF [TMED3_Y85_D86N_YF]	0.396	0.513	0.719	0.366	0.442	0.454	0.561	0.475	0.64	0.711	0.432	0.417	0.399
0.73	0.863	0.568	KDHPDYEFQPR [SOX9_Y172_K173E_YF]	0.319	0.475	0.665	0.712	1.05	0.614	0.509	0.585	1.81	0.723	0.448	0.504	0.425
2.32	1.16	8.55	CTTIHYNYMCD [TP53_Y234_N239D]	0.426	0.465	0.625	0.57	0.647	0.631	0.545	0.515	0.796	0.898	0.405	0.469	0.422
1.07	1.38	1.18	LNWIYYKDQTG [RS1_Y166]	0.787	0.888	2.21	1.4	1.58	2	1.13	1.35	2.25	2.51	1.32	1.35	1.06
0.76	0.808	1.3	KYVKMYDNHQL [MYO9A_Y203]	0.544	0.441	0.51	0.557	0.481	0.432	0.696	0.448	0.552	0.726	0.46	0.489	0.418
0.711	0.864	0.614	ELPEKYSQNIF [PKP2_Y626_YF]	0.538	0.423	1.09	0.579	0.528	0.659	0.605	0.492	0.989	1.05	0.413	0.507	0.539
0.875	0.963	2.83	EERNPYYSSAR [MCCC2_Y520_G517R]	0.468	0.505	0.923	0.487	0.472	0.552	0.591	0.5	0.942	0.749	0.654	0.828	1.56
0.801	0.796	0.452	GFSDPYVKASL [SYT3_Y470]	0.391	0.488	0.646	0.444	0.329	0.4	0.544	0.436	0.568	0.722	0.374	0.38	0.393
0.589	0.849	4.06	NACGLYHTMNG [GATA5_Y216_K218T]	3.18	0.643	0.956	2.47	0.934	1.79	0.746	0.849	0.959	0.95	0.865	2.21	3.06
0.61	0.644	0.502	IKKFKYGIEEH [GJA1_Y137]	0.323	0.382	0.582	0.4	0.42	0.476	0.498	0.497	0.836	0.697	0.374	0.402	0.336
0.473	0.815	0.498	SSYPDYLAAVD [GLB1_Y154_D151Y]	0.415	0.495	0.994	0.647	0.518	0.746	0.653	0.554	1.36	1.05	0.495	0.515	0.451
1.84	0.894	8.72	EVEPRYVVLYD [ERCC4_Y577]	5.22	0.547	1.07	1.36	3.5	0.986	0.91	3.44	1.22	1.13	0.664	0.646	0.683
1.44	0.778	0.551	LGNIVYSSLCG [BCOR_Y90_P85L]	2.66	1.74	2.02	1.05	1.47	1.54	2.48	1.39	2.1	2.15	4.98	6.67	5.82
